From patent US7811578B2, “Soluble chimeric peptide inhibitors of HIV entry comprising an IZ trimeric coiled-coil peptide and HIV gp41 N-helix coiled-coil peptide” (Whitehead Institute for Biomedical Research, dated 2010)

B1: IQN23 version 2 (designed binder)
chain: Ac-RMKQIEDKIEEIESKQKKIENEIARIKKLIEAQQHLLQLTVWGIKQLQARIL-NH2

Experiments:
[1] = target: HIV gp41 on HIV modified to contain a luciferase reporter gene (HIV, strain not stated)
[2] = target: HIV-1 HXB2 gp41 (from the HXB2 gp160 gene), on single-round luciferase virus (HIV-1 (HXB2)) (UniProt P04578)
[3] = target: gp160 (precursor protein to gp120/gp41) on CHO cells (HIV, strain not stated)
[4] = target: HIV-1 HXB2 gp41 (from the HXB2 gp160 gene), on single-round luciferase virus (HIV-1 (HXB2), UniProt P04578); assay: cell-based or functional assay

Molecule	IC50 (nm), viral infectivity (HIV luciferase assay) [4]	other results
GCN4-pIQI (peptide)		inhibition of luciferase activity (viral fusion experiment) [1]: > 10 µM
IQN17 (G572D) (designed binder)		IC50 (nm), viral infectivity (HIV luciferase assay) [2]: 20000 nM
IQN17 (designed binder)		IC50, inhibition of syncytia formation (cell/cell fusion, β-galactosidase) [3]: 20 to 80 nM; IC50, inhibition of luciferase activity (viral fusion experiment) [1]: 250 nM
Ac-KIEEIESKQKKIENEIARIKKLLQLTVWGIKQLQARIL-NH2 (designed binder) [IQ22N17]	~1000 nM	
Ac-RMKQIEDKIEEIESKQKKIENEIARIKKLLQLTVWGIKQLQARIL-NH2 (designed binder) [IQN17]	~180 nM	
Ac-KQKKIENEIARIKKLLQLTVWGIKQLQARIL-NH2 (designed binder) [IQ15N17]	~10000 nM	
Ac-KIKKIENEIARIKKLLQLTVWGIKQLQARIL-NH2 (designed binder) [II15N17]	~3000 nM	
Ac-KIEEIESKIKKIENEIARIKKLLQLTVWGIKQLQARIL-NH2 (designed binder) [II22N17]	~170 nM	
B1	~30 nM	
Ac-IKKEIEAIKKEQEAIKKKIEAIEKLLQLTVWGIKQLQARIL-NH2 (designed binder) [IZN17]	5.6 nM	
Ac-LLQLTVWGIKQLQARIL-NH2 [N17]	~10000 nM	
